Tests used:
Test in all cases: flow cytometry on peripheral blood lymphocytes
[1] = biological target: T1, cynomolgus monkey CD4 on lymphocytes (cynomolgus monkey, UniProt P79185 26-458)
T1 construct: whole, on cells; also called cynomolgus CD4 cells
Procedure: (§1) It is further desirable for some purposes that the animal be a non-human primate that expresses CD4 comprising a cross-reactive epitope with human CD4 such that it is recognized by the monoclonal antibody. […] Peripheral blood lymphocytes were isolated from whole blood of chimpanzee, rhesus, and cynomolgus monkeys. […] The stained cells were then analyzed by flow cytometry to determine if each of the human monoclonal antibodies bound to endogenous CD4 on the surface of lymphocytes from each of these three non-human primates.

[2] = biological target: T2, chimpanzee CD4 on lymphocytes (chimpanzee, UniProt P16004 26-458)
T2 construct: whole, on cells; also called chimpanzee CD4 cells
Procedure: as §1

[3] = biological target: T3, rhesus monkey CD4 on lymphocytes (rhesus monkey, UniProt P16003 26-458)
T3 construct: whole, on cells; also called rhesus CD4 cells
Procedure: as §1

Measured: binding result

T3 sequence (P16003 26-458): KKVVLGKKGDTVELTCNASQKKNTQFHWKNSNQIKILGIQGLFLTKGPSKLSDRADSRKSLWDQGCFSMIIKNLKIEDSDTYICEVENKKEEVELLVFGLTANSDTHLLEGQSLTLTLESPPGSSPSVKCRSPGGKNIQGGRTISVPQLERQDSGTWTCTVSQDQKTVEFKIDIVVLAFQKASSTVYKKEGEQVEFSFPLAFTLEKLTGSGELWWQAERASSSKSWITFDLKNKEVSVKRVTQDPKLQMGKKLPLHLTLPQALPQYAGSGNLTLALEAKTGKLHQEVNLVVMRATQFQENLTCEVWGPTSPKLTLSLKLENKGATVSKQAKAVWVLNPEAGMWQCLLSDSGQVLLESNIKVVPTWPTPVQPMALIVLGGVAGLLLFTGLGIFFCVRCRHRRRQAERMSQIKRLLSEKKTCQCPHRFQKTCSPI
T1 sequence (P79185 26-458): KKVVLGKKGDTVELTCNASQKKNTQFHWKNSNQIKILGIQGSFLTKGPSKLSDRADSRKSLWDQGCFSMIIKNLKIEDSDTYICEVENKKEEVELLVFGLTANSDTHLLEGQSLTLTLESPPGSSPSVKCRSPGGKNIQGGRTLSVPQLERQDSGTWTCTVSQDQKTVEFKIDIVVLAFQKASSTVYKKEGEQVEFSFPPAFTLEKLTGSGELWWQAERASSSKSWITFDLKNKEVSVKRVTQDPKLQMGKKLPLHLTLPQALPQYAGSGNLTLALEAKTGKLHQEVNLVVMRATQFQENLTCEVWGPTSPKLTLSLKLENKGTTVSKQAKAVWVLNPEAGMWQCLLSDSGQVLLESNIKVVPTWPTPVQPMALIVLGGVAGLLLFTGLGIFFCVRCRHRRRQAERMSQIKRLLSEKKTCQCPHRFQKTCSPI
T2 sequence (P16004 26-458): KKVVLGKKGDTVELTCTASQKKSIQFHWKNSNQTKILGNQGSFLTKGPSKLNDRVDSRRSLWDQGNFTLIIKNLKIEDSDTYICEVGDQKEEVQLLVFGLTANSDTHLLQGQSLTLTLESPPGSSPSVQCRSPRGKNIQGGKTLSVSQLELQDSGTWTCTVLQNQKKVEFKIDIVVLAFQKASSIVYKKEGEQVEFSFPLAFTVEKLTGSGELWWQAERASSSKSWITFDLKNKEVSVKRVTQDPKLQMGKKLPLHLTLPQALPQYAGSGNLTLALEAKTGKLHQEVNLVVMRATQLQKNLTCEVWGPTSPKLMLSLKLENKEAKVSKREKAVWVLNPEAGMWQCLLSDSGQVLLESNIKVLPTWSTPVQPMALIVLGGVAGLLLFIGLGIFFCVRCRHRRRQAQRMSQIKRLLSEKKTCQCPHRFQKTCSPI

B1: 4D1 (antibody, V domains shown)
VH: EVQLVQSGAEVKKPGESLKISCKGSGYSFTGYWIGWVRQMPGKGLEWMGIIYPGDSDTTYSPSFQGQVTISADKSISTAYLQWSSLKASDTAMYYCARDQLGLFDYWGQGTLVTVSS
VL: DIQMTQSPSSLSASVGDRVTITCRASQGISSWLAWYQQKPEKAPKSLIYSASSLQSGVPSRFSGSGSGTDFTLTISSLQPEDFATYYCQQYDSYPYTFGQGTKLEIK
notes: human IgG1 kappa from hybridoma; h.c; VH5-51, DHQ52, JH4; VkL15, Jk2; also called 4D1.4
binds: all assays above

— patent US7501552 (GENPHARM INTERNATIONAL, dated 2009)
